Reference: publication PMC8673607, “ENAP1 retrains seed germination via H3K9 acetylation mediated positive feedback regulation of ABI5” (PLoS Genetics, 2021)

Target: T1, His-ABI5 (Arabidopsis, UniProt Q9SJN0 1-442)
T1 construct: ABI5, Arabidopsis, AT2G36270; CDS ligated to pET28a; source: E. coli, purified (Ni-NTA agarose)
T1 sequence (looked up): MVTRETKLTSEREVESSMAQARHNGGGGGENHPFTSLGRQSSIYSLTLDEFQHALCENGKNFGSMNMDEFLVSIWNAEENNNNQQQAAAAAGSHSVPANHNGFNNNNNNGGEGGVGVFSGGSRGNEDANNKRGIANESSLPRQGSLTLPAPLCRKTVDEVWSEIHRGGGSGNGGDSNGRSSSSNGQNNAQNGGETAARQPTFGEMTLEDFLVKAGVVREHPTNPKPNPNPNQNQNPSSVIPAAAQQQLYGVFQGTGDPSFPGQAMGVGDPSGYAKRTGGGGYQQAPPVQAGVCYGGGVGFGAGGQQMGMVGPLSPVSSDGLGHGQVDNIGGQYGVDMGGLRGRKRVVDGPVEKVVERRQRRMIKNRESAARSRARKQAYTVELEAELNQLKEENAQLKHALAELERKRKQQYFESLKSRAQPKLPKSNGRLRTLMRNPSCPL
Experiment: pull-down; His-ABI5 purified with Ni-NTA agarose incubated with dialyzed MBP fused proteins 1h at 4°C; column buffer 20 mM Tris-HCl pH 7.4, 0.2 M NaCl, 1 mM EDTA; blots with anti-His and anti-MBP
Conditions: both partners purified

binding result: binds
B1: MBP-ENAP1 (natural protein, Arabidopsis, UniProt Q8VZI9 1-249, looked up)
chain: METTPETQSKTHRLPAGREDWWSEDATATLIEAWGDRYVNLNRGNLRQNDWKEVADAVNSSHGNGRPKTDVQCKNRIDTLKKKYKTEKAKPLSNWCFFDRLDFLIGPVMKKSSGAVVKSALMNPNLNPTGSKSTGSSLDDDDDDDDDDEEDDDDAGDWGFVVRKHRKVEDVDSSEGSAFRELARSILKLGEAFERIEGKKQQMMIELEKQRMEVAKELELQRMNMLMEMQLELEKSKLGKRRAASGKKL
notes: ENAP1, Arabidopsis, At3G11100; CDS ligated to pVP13 (Gateway vector, His tag removed); source: E. coli, purified (amylose resin, eluted with maltose, dialyzed)
